The values below come from article PMC1278935, “Different Catalytic Mechanisms in Mammalian Selenocysteine- and Cysteine-Containing Methionine-R-Sulfoxide Reductases” (PLoS Biology, 2005).

The data set deals with T1, CN(C)c1ccc(N=Nc2ccc(S(=O)(=O)N[C@@H](CC[S@@+](C)[O-])C(=O)O)cc2)cc1.
T1 construct: full-length mouse MsrB2, C-terminal His tag (LEHHHHHH), E. coli BL21(DE3), monomer
Nature of the data set: HPLC of dabsyl-Met, Lineweaver-Burk. It counts as biochemical, Mus musculus. Conditions: 20 mM DTT, 50 mM sodium phosphate pH 7.5, 50 mM NaCl, 37 °C, from E. coli. From the text: HPLC of dabsyl-Met, Lineweaver-Burk on MsrB2

Chain of MsrB2 (Mus musculus; H119G) (chain, as listed by the source H119G): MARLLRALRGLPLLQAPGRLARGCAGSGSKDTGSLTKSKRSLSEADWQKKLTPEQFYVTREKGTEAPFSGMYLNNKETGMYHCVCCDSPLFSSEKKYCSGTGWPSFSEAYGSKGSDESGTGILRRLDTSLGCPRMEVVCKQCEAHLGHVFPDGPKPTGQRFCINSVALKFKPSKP
Chain of MsrB2 (Mus musculus; V149E) (chain, as listed by the source V149E): as the sequence (chain, as listed by the source H119G) above, with G119H, V149E counted along it
Chain of MsrB2 (Mus musculus) (chain, as listed by the source): as the sequence (chain, as listed by the source H119G) above, with G119H counted along it

Usually Km stands for the concentration of substrate that gives half-maximal velocity. The term kcat denotes the maximal rate divided by the concentration of active sites. MsrB2 (Mus musculus; H119G): for the setting “MsrB1 numbering”, the Km came out at 340 ± 60 µM and the kcat is 0.0083 ± 0.0017 s⁻¹.

As for MsrB2 (Mus musculus), the Km is 310 ± 100 µM and the kcat was found to be 0.458 ± 0.0633 s⁻¹.

With MsrB2 (Mus musculus; V149E), for the setting “MsrB1 numbering”, the Km stood at 140 ± 40 µM and the kcat was found to be 0.0933 ± 0.012 s⁻¹.
